In patent US20260209362A1 (VIB VZW, published 2026):

B1: anti-IL-12Rβ2 VHH clone 20527 (VHH, not shown: small tags and cut ends)
VHH: QVQLQESGGGLVQAGGSLRLSCAASGFTLSTYAMSWVRQAPGKGLEWVSSISSSGASTNYADSVKGRFTISRDNAKNTLYLQMNSLKPEDTAVYYCAKASQNYSPPGQGTQVTVSS
notes: tested as periplasmic extract; also called 3CRMS90
B2: anti-IL-12Rβ2 VHH clone 20447 (VHH, not shown: small tags and cut ends)
VHH: QVQLQESGGGLVQPGGSLRLSCAASGFTFRSYAMSWVRQAPGKGLEWVSSISSSGTDTNYADSVKGRLTISRDNVKNTLYLQMNSLKPEDTAVYYCAKASQNYSPPGQGTQVTVSS
notes: tested as periplasmic extract; also called 2CRM39
B3: anti-IL-12Rβ2 VHH clone 20452 (VHH, not shown: small tags and cut ends)
VHH: QVQLQESGGGLVQAGGSLRLSCAASGFAFSSVAMSWVRQAPGKGLEWVSSISSGGHDTNYANSVKGRFTISRDNAKNTLYLQMNSLKPEDTAVYYCAKSSRNYSPPGQGTQVTVSS
notes: tested as periplasmic extract; also called 2CRM84
B4: anti-IL-12Rβ2 VHH clone 20451 (VHH, not shown: small tags and cut ends)
VHH: QVQLQESGGGLVQPGGSLRLSCAASGFTFSAYAMSWVRQAPGKGLEWVSSISSTGTNPNYADSVKGRFTISRDNAKNTLYLQMNSLKPEDTAVYYCAEAYRNYSPPGQGTQVTVSS
notes: tested as periplasmic extract; also called 2CRM83
B5: anti-IL-12Rβ2 VHH clone 2CRH62 (VHH, not shown: small tags and cut ends)
VHH: QVQLQESGGGLVQPGGSLRLSCVESGRTFTVYDMGWFRQAPGKEREIVAAISADGATSIYQDSVKGRFTISRDNDAKNTVYLQMNSLKPEDTAVYYCAAGRSLIYNLYRANNTDYWGQGTQVTVSS
notes: periplasmic extract
B6: anti-IL-12Rβ2 VHH clone 3CRH93 (VHH, not shown: small tags and cut ends)
VHH: QVQLQESGGGLVQAGGSLRLSCAASGRTVDSYAMGWFRQTPGKEREFVAASWGGGSTYYADSVKGRFTISRDNVKNTMYLQMDSLKPEDTAVYYCAAGPTYYSGPINDNWEGRYDSWGQGTQVTVSS
notes: periplasmic extract
B7: anti-IL-12Rβ2 VHH clone 2CRH76 (VHH, not shown: small tags and cut ends)
VHH: QVQLQESGGGLVQTGGSLRLSCVASGRTFNWSAMGWFRQPPGKEREVVATISGGGTSAYYADSVKGRFTISRDGAKNTLYLQMNSLKPEDTAVYYCAADRVDYRMTLTQNGNHYWGQGTQVTVSS
notes: periplasmic extract
B8: anti-IL-12Rβ2 VHH clone 2CRH82 (VHH, not shown: small tags and cut ends)
VHH: QVQLQESGGGLVQAGGSLRLSCAASARTESMYAMAWFRQAPGKEREIVAGIIQSGGTTYISDYMKGRFSIDRGNAENTVYLQMDSLKPEDTAVYSCAAKVSSGTPSDIQISQSRWYDHWGQGTQVTVSS
notes: periplasmic extract
B9: anti-IL-12Rβ2 VHH clone 20510 (VHH, not shown: small tags and cut ends)
VHH: QVQLQESGGGLVQAGGSLRLSCAASGRTFSSYGMGWFRQAPGKEREFVAAISRGARITDYADSVKGRFTISRDNAKNTAYLQMNSLNPEDTAVYFCAAAYTYSGSHYVTARSSDYHSWGQGTQVTVSS
notes: tested as periplasmic extract; also called 3CAM31
B10: anti-IL-12Rβ2 VHH clone 20488 (VHH, not shown: small tags and cut ends)
VHH: QVQLQESGGGLMQAGDSLRLSCAASGRTFSSYGMGWFRQAPGKEREFVAAISRGARITDYADSVKGRFTISRDNAKNTAYLQMNSLNPEDTAVYFCAAAYTYSGSHYVTARSSDYHSWGQGTQVTVSS
notes: tested as periplasmic extract; also called 2CAM48
B11: anti-IL-12Rβ2 VHH clone 20480 (VHH, not shown: small tags and cut ends)
VHH: QVQLQESGGGLVQAGGSLRLSCAASGRTFSSYGMGWFRQAPGKEREFVAAISRDARITDYADSVKGRFTISRDNAKNTAYLEMNSLNPEDTAVYFCAAAYTYSGSHYVTARSSDYHSWGQGTQVTVSS
notes: tested as periplasmic extract; also called 2CAM36
B12: anti-IL-12Rβ2 VHH clone 20491 (VHH, not shown: small tags and cut ends)
VHH: QVQLQESGGGLVQAGGSLRLSCAASGRTFSSYGMGWFRQAPGKERDFVAAISRDARYTDYADSVKGRFTISKDNAKNTAYLQMNSLNPEDTAVYFCAAAYTYSGSHYVTARSGDYNYWGQGTQVTVSS
notes: tested as periplasmic extract; also called 2CAM57
B13: anti-IL-12Rβ2 VHH clone 20481 (VHH, not shown: small tags and cut ends)
VHH: QVQLQESGGGLVQAGGSLRLSCAASGRTFSSYGMGWFRQAPGKERDFVAAISRDARITDYADSVKGRFTISRDNVKNTVYLQMNSLNPEDTAVYFCAAAYTYSGSHYVTARSSDYHSWGQGTQVTVSS
notes: tested as periplasmic extract; also called 2CAM38
B14: anti-IL-12Rβ2 VHH clone 20495 (VHH, not shown: small tags and cut ends)
VHH: QVQLQESGGGLVQAGGSLRLSCAASGRTFSMHGMGWFRQAPGKEREFVAAISRDARITDYADSVKGRFTISRDNAKNTAYLQMNSLNPEDTAVYFCAAAYTYSGSHYVTARSSDYNYWGQGTQVTVSS
notes: tested as periplasmic extract; also called 2CAM69
B15: anti-IL-12Rβ2 VHH clone 20469 (VHH, not shown: small tags and cut ends)
VHH: QVQLQESGGGLVQPGGSLRLSCAASGRTFSSYGMGWFRQAPGKKREFVAAISRDARITDYADSVKGRFTISRDNAKNTAYLEMNSLNPEDTAVYFCAAAYTYSGSHYVTARSSDYHSWGQGTQVTVSS
notes: tested as periplasmic extract; also called 2CAM8
B16: anti-IL-12Rβ2 VHH clone 3CAH34 (VHH, not shown: small tags and cut ends)
VHH: QVQLQESGGGSVQPGGSLRLSCGASGFTFSSFGMHWFRQAPGKGQEWAATISSSGGTTYYSDSVKGRFTISRDNAKNTLYLQMNSLKPEDTALYYCARDVTGAVRGQGTQVTVSS
notes: periplasmic extract; also called 20358
B17: anti-IL-12Rβ2 VHH clone 3CAHS172 (VHH, not shown: small tags and cut ends)
VHH: QVQLQESGGGSVQAGGSLRLSCGASGFTFSSFGMHWFRQAPGKGQEWVATISSSGGTTYYSDSVKGRFTISRDNAKNTLYLQMNSLKPEDTALYYCARDVTGAVRGQGTQVTVSS
notes: periplasmic extract
B18: anti-IL-12Rβ2 VHH clone 3CAHS153 (VHH, not shown: small tags and cut ends)
VHH: QVQLQESGGGLVQAGGSLRLSCAASGRTFSSYAMGWFRQVPGKERDFVAAVSWGGLSTYYADSVEGRFTISRDNAKNTVFLQMNSLKPEDTAVYYCAADRAYEGLGYGEYEYWGQGTQVTVSS
notes: periplasmic extract
B19: anti-IL-12Rβ2 VHH clone 3CRH73 (VHH, not shown: small tags and cut ends)
VHH: QVQLQESGGGLVRAGGSLRLSCAASGHTFSNYVMGWFRQAPGKEREFVAAISWGGSNTYYADSVKGRFTISRDNAKNTVYLQMNSLKVEDTAVYYCAADRRFEGWNYYSMDYWGKGTQVTVSS
notes: periplasmic extract

Tests used:
[1] = molecular target: T1, biotinylated recombinant human IL-12Rβ2 (human, UniProt Q99665 24-622, random biotinylated); test: ELISA, periplasmic extract on biotinylated hIL-12Rβ2, signal over control wells
T1 construct: Recombinant protein produced in-house, biotinylated; also called hIL-12RB2; human IL-12RB2
T1 sequence: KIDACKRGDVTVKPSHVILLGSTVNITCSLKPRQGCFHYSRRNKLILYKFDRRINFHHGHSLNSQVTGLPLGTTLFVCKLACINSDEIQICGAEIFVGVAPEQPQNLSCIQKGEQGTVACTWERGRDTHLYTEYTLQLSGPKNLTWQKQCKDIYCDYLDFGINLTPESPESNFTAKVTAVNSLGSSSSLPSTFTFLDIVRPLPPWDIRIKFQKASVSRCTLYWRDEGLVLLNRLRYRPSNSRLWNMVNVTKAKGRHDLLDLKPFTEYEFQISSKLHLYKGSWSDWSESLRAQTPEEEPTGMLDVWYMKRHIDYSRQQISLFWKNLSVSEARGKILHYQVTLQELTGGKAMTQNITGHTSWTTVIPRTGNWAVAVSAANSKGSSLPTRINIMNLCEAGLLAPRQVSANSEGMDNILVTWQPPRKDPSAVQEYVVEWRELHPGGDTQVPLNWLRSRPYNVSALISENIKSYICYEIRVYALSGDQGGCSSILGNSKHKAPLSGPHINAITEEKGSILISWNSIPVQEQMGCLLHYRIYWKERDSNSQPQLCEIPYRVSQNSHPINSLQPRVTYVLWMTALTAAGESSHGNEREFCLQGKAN

[2] = molecular target: T2, biotinylated recombinant mouse IL-12Rβ2 (mouse, UniProt P97378 24-637, random biotinylated); test: ELISA, periplasmic extract on biotinylated mIL-12Rβ2, signal over control wells
T2 construct: Recombinant protein produced in-house, biotinylated; also called mIL-12RB2; mouse IL-12RB2
T2 sequence: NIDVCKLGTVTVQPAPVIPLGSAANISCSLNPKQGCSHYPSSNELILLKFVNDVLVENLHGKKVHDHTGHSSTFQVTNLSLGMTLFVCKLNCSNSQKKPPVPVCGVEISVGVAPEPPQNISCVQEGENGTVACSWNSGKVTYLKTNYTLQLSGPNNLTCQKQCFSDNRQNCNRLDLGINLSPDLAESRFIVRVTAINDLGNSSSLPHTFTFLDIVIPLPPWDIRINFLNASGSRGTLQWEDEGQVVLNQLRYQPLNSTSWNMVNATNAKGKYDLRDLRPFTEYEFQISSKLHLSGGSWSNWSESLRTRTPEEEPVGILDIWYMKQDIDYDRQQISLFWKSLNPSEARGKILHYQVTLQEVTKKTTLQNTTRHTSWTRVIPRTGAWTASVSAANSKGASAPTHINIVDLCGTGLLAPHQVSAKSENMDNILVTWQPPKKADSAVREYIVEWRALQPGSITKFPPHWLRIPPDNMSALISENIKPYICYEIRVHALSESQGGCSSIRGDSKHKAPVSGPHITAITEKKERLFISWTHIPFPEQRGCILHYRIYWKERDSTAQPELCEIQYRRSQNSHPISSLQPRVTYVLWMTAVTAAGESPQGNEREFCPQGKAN

human IL-12Rβ2 = molecular target: T3, human IL-12Rβ2 (human, UniProt Q99665 24-862); test: flow cytometry, P.E. on transfected HEK293T cells
T3 construct: Expressed on HEK293T cells transiently transfected with a pcDNA3 plasmid (Genscript clone OHu21785); also called hIL-12RB2; IL-12 receptor β2 subunit
T3 sequence: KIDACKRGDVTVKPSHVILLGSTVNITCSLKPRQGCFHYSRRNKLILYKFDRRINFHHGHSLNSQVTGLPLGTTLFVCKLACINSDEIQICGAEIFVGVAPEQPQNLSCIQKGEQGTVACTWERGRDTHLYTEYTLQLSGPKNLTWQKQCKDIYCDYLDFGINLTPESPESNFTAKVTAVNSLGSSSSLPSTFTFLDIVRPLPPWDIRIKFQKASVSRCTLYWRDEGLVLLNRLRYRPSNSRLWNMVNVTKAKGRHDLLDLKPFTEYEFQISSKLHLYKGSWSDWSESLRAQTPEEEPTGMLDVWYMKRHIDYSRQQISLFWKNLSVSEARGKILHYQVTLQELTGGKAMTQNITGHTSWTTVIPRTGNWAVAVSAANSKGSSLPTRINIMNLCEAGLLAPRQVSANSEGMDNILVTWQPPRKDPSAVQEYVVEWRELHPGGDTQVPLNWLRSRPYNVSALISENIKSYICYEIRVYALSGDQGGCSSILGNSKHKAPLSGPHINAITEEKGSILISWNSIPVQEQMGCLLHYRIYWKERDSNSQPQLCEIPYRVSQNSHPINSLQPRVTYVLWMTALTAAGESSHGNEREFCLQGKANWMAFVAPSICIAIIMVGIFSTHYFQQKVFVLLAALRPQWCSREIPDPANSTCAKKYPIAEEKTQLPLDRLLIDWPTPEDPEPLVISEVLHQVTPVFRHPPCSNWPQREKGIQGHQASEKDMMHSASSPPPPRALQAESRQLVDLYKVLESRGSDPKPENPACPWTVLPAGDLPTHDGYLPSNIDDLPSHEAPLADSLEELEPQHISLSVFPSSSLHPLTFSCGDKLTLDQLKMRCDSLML

Binder	ELISA binding hIL-12RB2/control [1] [ratio]	ELISA binding mIL-12RB2/control [2] [ratio]	% cells bound (human IL-12Rβ2) [%]	dMFI (human IL-12Rβ2)
B1	0.834	9.93		
B2	1.4	11.8		
B3	0.989	7.52		
B4	1.26	33.5		
B5			41.9	891
B6			31.5	580
B7			36.6	668
B8			40.1	844
B9	1.2	16.4		
B10	0.973	12.9		
B11	0.979	18.1		
B12	1	14.4		
B13	0.983	15.8		
B14	0.924	15.8		
B15	1.05	22		
B16			34.6	620
B17			43	1020
B18			36.8	789
B19			41.2	918
